From the domain aggregation screens of Martell et al. (2025)

Assay: soluble fraction after stress (log2 fold change); higher = more stays soluble; pooled small domains, quantitative proteomics
Details: stress: pH 4
How it was run: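 Small protein domains from pooled custom libraries were exposed to pH 4, then quantified with high-throughput quantitative proteomics. The fold change in how much of each domain remains soluble is read as aggregation propensity. It is given as log2, with higher values meaning more stayed soluble.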

| Sequence | soluble fraction (log2) |
| --- | --- |
| HMKADTSPEAQKKIIAAFEPYSVNKDQIEKLIQRRIDSITPAQVIRLRKILASLKDGMSSPEDWFE | 0.076 |
| HMKQHPTIDLQIGQKLHYKEDVFEVTRFAKDKNGQDMVILKDPSIGSGIEIPWYRSKLEEIIESGQYKIT | -0.113 |
| HMESKITTAEAAAILNASPQFVRVAMQRGILNIGIAMQMPNSNKWTYNISPKLLGEYSGKNIEYELERLR | -0.692 |
| HMKEILVGVEPLSKKQIIIKKGIKGRSDYIIFEKKNYGLPENLKPEEVSIEIALKIIDEKKKRKA | 0.22 |
| HMVDKTMYDRYAVDDYVRVIDGPLVGTEGRIIELDRETGNVKIEAVFFGRVTTADINFALIEKVD | -1.33 |
| HMVINVNEIIRRIKELKTFKTDRQVADFLGVSKATVSNWMARNSIDFPLLINKLDGVDLTWLLTGRGTPE | -0.121 |
| HMKDLQAISERMEEIISFAKANDNEISLFIVQDIIKNKKTGIDEDLLNMALYQIKEQGIKVLPA | -1.05 |
| HMKKDNLKKIKSIDEDIENELFKLGIYHFEQISIWSSKNAEWIENFLNLPNYVRANQWVEQAKILK | -0.885 |
| HMDDPDALITDSQLKAIHVLLGKLKIDDNLKHAYIADVLQLKDIPETLKTLTKHQGSTIIERLNLLIKDA | -0.0657 |
| HMSGFPTDAQIVREIRNILPTLENPTPRMVRKALENTFEVDMGESKTKKYINNIIITEYEKWSSVQSIRE | -0.804 |
| HMQKYEDIINVTRERLQNKFYSQTVIPTDDDIYIWLDKVAILEEIKLSKEDRQMLFNLLKKEAT | -0.879 |
| HMSINQIADKGYITRLIDNNANIKDVLYYDASSRILAIEDPKYMFYLKNTDWNQFAKEMGFKLE | -0.556 |
| HMRNLFWTEAQNAQNELNAMRINALTQSIRRIEPNFRGIPSLRDPNRPIPNEEVRDYENYLNRILP | 0.126 |
| HMGLRERLLNYIAYKGIDKATLERKSGLSNDAVNKMGDNTRVSTLDKISNAFPDINIAWLKTGVGEMILG | 0.146 |
| HMWSQEPEYRPLYNSMDGFDAGQVVEMLQQSRIDYKVEPNSGALLVRSEDLADARLRLASAGISP | -0.959 |
| HMGKAPREVQVGELLRVPALNAEGEVLRRDGESVELSIQGKKLRLPLAQLEAFSPRRFARRGEGKVRGRIE | 0.266 |
| HMREIDIWVAEDADSQRIDKYLSMVVEDLSRSRIASLIEGGSILVNGEVIRAKYKVKPADHITAAFEDEM | -0.938 |
| HMDIDLNTIKKITLDDIHAFLSYLTTTYHSKAATRARKASSIRVFFNYLSAKANLIEVNPAQNLETPKLD | 0.0886 |
| HMEAKKVIAVHIIGEINKPGIVELEEGARVIDAIKKAGGTTEKADLAQINLAYILKDGQKIYIPNTEDN | -0.334 |
| HMEDYTPLQELGLKARYIELLEKGGIFSVEDLVQKSVDDLKDIDGIGEKTAKEIWEIVDSMVDF | -0.308 |
| HMQQLTDRELEVLRLLAAGLSNNKIGEKLYISATTAKFHVSNIMRKLEVSRRAEAVYAASKRGL | -0.587 |
| HMDRKEEIIIVTLKLASQIGLSNVSMEQIAKQVGIKKPSLYNHFKSKDEIIDAMYEYLREKSKN | -1.16 |
| HMSQDLVVLGDSMLNNALKAFHIDPNAIKKKYWDKLILDYHLKSKEEVLTEIALGKKINVMVAHQLTSIMD | -0.238 |
| HMGSEISLNAFNIPKGSVSVTAGGTKLVENQDYTVDYTLGRIKILNEGILNSGVPIQVNFENNTLFN | -0.087 |
| HMDVQTVTVIENVNVRKSASENGQKLGLAYTGEKLELLMKQADGWTRVKYNGETAYVKSDYV | -0.0843 |

| Sequence | soluble fraction (log2) |
| --- | --- |
| HMALKSGVIAHAVDDAVMRGLNVFTVSDDGSIVSMKDNDIVLGKDGKSPYSVSEWLEELKPNVPHWFG | -0.256 |
| HMEEKKYEVGDVVSFNYLYKNSFAEGKVSSLIHSGTITRIIDGRPAPYLINRGTGWLSNDLILT | -0.179 |
| HMREGLRHLRVRMPGGAGETLAMLYREGEVLSQSSDGAFIEVEIRVAQSVAGRLLQMPGVQLTEEVG | -0.871 |
| HMQPAALEAQVIKLVRLHAPIKARQLATILANEFGQHVDRSTVNSLLYQLRAQGKVAQNAAYQWSLT | -0.0984 |
| HMKTDFEIDITVKASSLRVVASPGGDELVGTVTRGDRVTQLATPKDGWILIKMTDGRLGYVPESLLLFP | -0.89 |
| HMTNLTPKQQQIYQFIRASTQANGYPPTLREIGQQVGVRSPSTVKYHLDNLRTLGLLHWDGGKTRSITLP | 0.0274 |
| HMTMMTFGEKLQNARKGAGLSQEQLAEKLSVSRSAVAKWENDNGMPDIDNLKAIAQLLDVSIDYLLEN | -0.71 |
| HMLSGNLTADAHVHRGLQALSDGRNEDALVDFTKATEVQADFAEAWNKRATVNYLLGRYDAAVLDIQKTLE | 0.0958 |
| HMQSRRTPASLVERVRQLNGQYQDKEIAELLNREGIKTAHGNEFNAKRIEMIRRHNGISKHSAQ | -0.0944 |
| HMKIPQFAVIKQYLEQQIKTAQWAPGRQIPTEQSLADTFSVSRMTARRAVQQLADAGLLERTQGSGTFVAD | -0.053 |
| HMQFEIGDTVRVHVNIREGERERVQMFEGTVIAKRGSGVSETFTVRRVSYGVGVERVFPVNSPNV | 0.22 |
| HMTGSTSVAQVSTPSGSLNLRAYASTSARVLLQIPEYAFVTVYNRGATWSYVSYNGVSGYVMSVYLSFGG | -0.846 |
| HMSAAIGEAVIATDEINVRSGPGLSHEIVSVVSRNESYPILEERGDWVQIQLNGGQKGWVVSWLIKKKS | -0.268 |
| HMSDAKKRAFSKDEILYSLKNRPFTSFDIESLFDDESKKTFIGLLDKGEISEKKVAGTIFYYLR | -0.461 |
| HMYDDEELDVLAHRPIESYTDAELAMLREVAETLLETDYEGWLKSLSMRGILLPPEILQLVT | -1.29 |
| HMTVTKYGKKILEIVSSSRSHMTAEEIFDALRQTYPTVVLATVYNNLNRLWQDDLIRKVSVEGMPDRYD | -0.0435 |
| HMSHYDILEVDPKASATEIKQSFRKKSLQYHPDRNKSSDAHEYMTKITEAYNILGDKDKRRHYDMELKL | 0.172 |
| HMLDRNKLNELDAYIESFEDKPSHLIMILHRAQGLFGYLPKELQIYVAEKTGVPAAKVYGVVTFYSFFTMK | -0.737 |
| HMSGYSTLFTRMSREDAQAVVSLLQDDGIEYRYNDDTGTVQVPSATVDQTRAKLVSAGYPRS | -0.303 |
| HMTVSADQTAADAVIKLINAIGTVSENSGSAISAARSGYDALTDTQKKLVTNYNKLTQAEQVFSSLPS | -0.315 |
| HMNQGKLIEMLQEMKEIAHSQNNYLTKNEIANYLGDTVLSKEQLQAVYHYLGENHIEVEGYVYIP | -0.51 |
| HMGYGEQEAEATKYMSLHAIMSADETLSKMYTPENQHKLMTHVMEQNGIKNVKDYLTPPSELP | -0.443 |
| HMAPGASEVPDLTSLPAREALLRLTKLGLLPEMEGTGRLVRQQPAAGTRVPKGSKVHLVFEPG | 0.0438 |
| HMVIQRQIPPLVTRMLDGLEQFIQLDMPFDLDTRLGNIEAVRANMDRSDVTSAEAYRQVLELYSIELQ | -0.0525 |
| HMVTLPLLKRGHTGLPVKALQTLLVLRGMSVDVDGSFGEKTESAVRTFQTAAKILSDGEVGKDTWKALI | -0.911 |

| Sequence | soluble fraction (log2) |
| --- | --- |
| HMDTPVYYYVNGNGVRMRKDASLESDILILLYKGTKVEYVDVKGEWIKVKYNNEIGYIRNDLLSAEMPD | -0.527 |
| HMFNKTKVPNFIDMNYYEEIEGNSEYDKFNFADPITKNDDTKAPGTVIDQTPEKGTRIDEEKTVIQLTIA | -0.149 |
| HMDDSVVFSLNAKGIRLTGAGKYGEAIALFDKAIAAKPGLSGLYFNRAEARRLSGDLPGARSDLEQALAI | -0.113 |
| HMVPDGFDQLTEREYQVAMAVGKGLNNKEIASQLGLGERTVKAHLTTTFEKLHVRDRVQLALIVNRL | -0.404 |
| HMEGFKSVYFLTTPSGAEISDRSVGDIISKTPSLVSAQEGTEFEFNLKGYQPSFYMINKRSPDRVFVELIP | -0.575 |
| HMYAEVTITIEKGMTSDSVSKLLYKAGIVDDAKEFNNYIIKAGKSTKILIGEFTIQKGASYDDIIKIIA | -0.133 |
| HMNDLKVGELAKRGNVTAETVRHYTREGLLSPTRHPDNGYQLFSATDLERLHFIQRARKLGFSVAEIRDIL | -0.278 |
| HMVTVPNYSDPRQYVEWGNANGITINRAVGDTIASMSGRVQDVRDSNGNSVIGKKVKKGSTVTVYIYFLK | -0.0785 |
| HMNREEKKALTRRQIIDVATRLFRQHGIHNTDLKTIATEAGVSVVTFYKYFDSKEALIGTIAAEQ | -0.23 |
| HMDLDPVEKLHLLSQLYVGQLKGSFVVKEKNQKTTIIGEVRELSHQTLSIRTNEGYRLIEVADILEIRLWE | -0.362 |
| HMLEKDIGKAITILRKSYQLSISAFSMRTGYSRVHISEVESGKRKATDELISVIRNVFHLDSNWPF | -0.517 |
| HMNTFDLSKLEEIILASRDKAMKTKEFTELDNLKNLFITAGLDVQMSKNGIKLIKGPKFNSSLLEDF | -0.741 |
| HMQMTKSEFLDALRRALNGNMAAASVDDNIRFYDSYFYTEETKGRSEAEILSELGDPRILARTLIDAAD | -0.382 |
| HMLGERIRRLRKEMGMSVTELARRVKTSPSYISEIEKGEKTPSLNLLVRIASELRTGIDYLTGL | -0.00698 |
| HMEDIVDLVVEPEAAGRRLDAWLASRIERLSRSRIKALIESGHVAIGGATIVEAKKPVNSGDVVQLSVPEG | -0.121 |
| HMSYGDLTGRTVVITGASKGIGARASRVLAQAGASVVGLARSVDELTALKYDLENDGLSFDFG | ≥ 0.43 |
| HMRQYKEMPYRLFLIHLGKGLVDEVELSDKAKLTGKLKNGKIFITDNPRTENFKEQLLLHDVKVKEG | -0.133 |
| HMQVTIGADLAEHAARLDVQISDVVKLIKSGVSEGEIKVGLTKLETRLAHPELALVENKLAYLKALIAES | -0.79 |
| HMDPVQLEVIKKLNLLNAQKPKDIYALRDVLSEMFPQSDIRLLLKELLDKGYIYWNGHEVIYSHEMF | -0.431 |
| HMRRHLLEMNDAIGRLGRLISEDPADRDVAEVIWAALRGMVMGQMIMNEPIDWQRERRTLVEMAIGR | 0.119 |
| HMSNTIFGINGPVVTVASKDFSMQEMVYVGNERLVGEVISIDDDLTTIQVYEVTTGLKPGEPVVGTGSAM | -1.64 |
| HMTTRLLTPRQRQVFDIAIREGFYDSPRRISLTELADLLGVAKSTLSVQLQRVESTIVHTFSEEIRRRS | -0.176 |
| HMRDQAIDIYKTVHSVAEPYKEVFLLRVLGELSFKEISHIFGKSESWAKVTFFRAKIKVVEKREES | -1.04 |
| HMDRPEPLYIVNGKEVQTLEEAFELGRTLGSAKKGTQVRLRRLLPEEGVEKYGEKGRNGVFEFMVSA | 0.385 |
| HMLPANGEAIYHYLASGAIKGVGPVTAQRIVDKFGEDTFDVLENNPLWLAEIKGITRKTAENIGAAFAAQF | -0.263 |
